In patent publication US20190031761A1 one finds Kd data, which are given here for one molecule.

In test [1] the target is T1, EGFRvIII-specific peptide (…).
T1 sequence (peptide): LEEKKGNYVVTDHC
Kind of test: concentration-dependent ELISA in triplicate, Prism nonlinear regression (apparent affinity).

Test [2] addresses EGFRvIII recombinant protein (rhEGFRvIII protein) used in ELISA (human) (UniProt P00533). The description is as above.

B1: B4A3 scFv protein (anti-EGFRvIII scFv) (scFv, part only; not given: scFv linker, domain order, tags, V domains shown, not shown: another chain or arm of the molecule; small tags and cut ends)
VH: EVQLLESGGGLVQPGGSLRLSCAASGFTFSNYYMSWVRQAPGKGLEWVSGTSPNGGSKYYADSVKGRFTISRDNSKNTLYLQMNSLRAEDTAVYYCAKGRRKLRATRFDYWGQGTLVTVSS
VL: QSVLTQPPSASGTPGQRVTISCTGSSSNIGNNYVSWYQQHPGTAPKLLIYSDSNRPSGVPDRFSGSKSGTSASLAISGLRSEDEADYYCATWDASLSAYVFGGGTKLTVL
Consider B1, for which the Kd in test [1] was determined as 0.272 nM; in test [2], 2.35 nM.
